The target in assay [1] is anti-CD28 Fab (SEQ ID NOs: 202, 203). Kind of assay: phage binding ELISA; biotinylated anti-CD28 Fab captured on neutravidin plate, clonal phage supernatant, anti-M13-HRP detection.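 Further: before crude clonal phage supernatants were added, wells were preincubated with CD28 antigen in blocking buffer or with blocking buffer only.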 A general note: ELISA stands for enzyme-linked immunosorbent assay.
Assay [2] addresses T1, Anti-CD28 Fab (SEQ ID NOs: 202, 203).
T1 construct: biotinylated and captured on neutravidin coated plates in the phage ELISA
Kind of assay: phage binding ELISA, Fab on plate.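 Further: clonal phage supernatant ELISA, wells preincubated with CD28 antigen or blocking buffer only, then bound phage detected using HRP-linked anti-M13 antibody.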

The target is the same in assay [3]. Kind of assay: phage binding ELISA, Fab on plate, CD28 as competitor.
For assay [4], the target named is T2, Ab-1.
T2 construct: also called anti-CD28 scFv harbored in Ab-1
As to the kind of experiment: competition ELISA, peptide titrated vs 1 nM Ab-1 binding plate-bound CD28.

Assay [5] has as its target T2, Ab-1. Kind of assay: binding ELISA, peptide captured, Ab-1 titrated.
The target in assay [6] is T2, Ab-1. As to the kind of experiment: BLI (Octet), 200 nM peptide, 100 nM Ab-1.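 Further: association and dissociation phases tracked in real time, with kinetics fitted to a 1:1 interaction model.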 A general note: Biolayer interferometry detects binding as a change in optical thickness at a sensor tip.

No end group written: not given here.
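Wherever Anti-CD28 Fab signal in the presence of CD28 is given: coated wells pre-incubated with CD28 antigen or with blocking buffer only, then crude clonal phage supernatant added briefly, and retained phage read out via HRP-linked anti-M13 antibody.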

Take TCAAGATYEWPSCI [Phage-1234]: the “Anti-CD28 Fab (SEQ ID NOs: 202, 203) signal” value in assay [1] was determined as 0.86. On the same count and under the same terms, to LCEAGFNYDWPRCL [Phage-1236] belongs 0.85. Consider TCSAGAHFAWPMCF [Phage-1045], for which the “Anti-CD28 Fab (SEQ ID NOs: 202, 203) signal” value in assay [2] amounted to 1.69. Also, the “Anti-CD28 Fab signal in the presence of CD28” value (“Anti-CD28 Fab signal” below) in assay [3] amounted to 0.07. With SCAAGAHYVWPFCF [Phage-1046], in assay [2], the “Anti-CD28 Fab (SEQ ID NOs: 202, 203) signal” value was 1.68. Besides, in assay [3], the “Anti-CD28 Fab signal” value worked out at 0.08. For the molecule QCAAGFSYTWPECY [Phage-1231], in assay [1], the “Anti-CD28 Fab (SEQ ID NOs: 202, 203) signal” value is 0.9. SCAAGAAYPWPACL [Phage-1013]: the “Anti-CD28 Fab (SEQ ID NOs: 202, 203) signal” value in assay [2] is 1.8. Besides, in assay [3], the “Anti-CD28 Fab signal” value was 0.06. On to TCAAGATWVWPTCF [Phage-1228], for which, in assay [1], the “Anti-CD28 Fab (SEQ ID NOs: 202, 203) signal” value came out at 0.92. With WCAAFFHYPWPQCF [Phage-1232], in assay [1], the “Anti-CD28 Fab (SEQ ID NOs: 202, 203) signal” value was 0.87.

Consider WCAAGAMYPWPLCL [Phage-1049], for which, in assay [2], the “Anti-CD28 Fab (SEQ ID NOs: 202, 203) signal” value was found to be 1.67. Also, the “Anti-CD28 Fab signal” value in assay [3] worked out at 0.06. For the molecule VCAAGAAYPWPACL [Phage-1226], in assay [1], the “Anti-CD28 Fab (SEQ ID NOs: 202, 203) signal” value was determined as 0.93. In the case of TCSAGATYAWPACY [Phage-1002], the “Anti-CD28 Fab (SEQ ID NOs: 202, 203) signal” value in assay [2] was found to be 1.84. Moreover, the “Anti-CD28 Fab signal” value in assay [3] stood at 0.14. As to SCAAGAHWSWPACL [Phage-1223], in assay [1], the “Anti-CD28 Fab (SEQ ID NOs: 202, 203) signal” value was determined as 0.97.

For TCSAGATYNWPWCF [Phage-1047], the “Anti-CD28 Fab (SEQ ID NOs: 202, 203) signal” value in assay [2] was determined as 1.68. Besides, the “Anti-CD28 Fab signal” value in assay [3] stood at 0.05. Turning to TCAAGASWDWPFCF [Phage-1237], the “Anti-CD28 Fab (SEQ ID NOs: 202, 203) signal” value in assay [1] was found to be 0.82. With TCTAGFSYNWPMCF [Phage-1001], the “Anti-CD28 Fab (SEQ ID NOs: 202, 203) signal” value in assay [2] stood at 1.85. Further, in assay [3], the “Anti-CD28 Fab signal” value turned out to be 0.06. With TCSAGAHYEWPYCL [Phage-1007], the “Anti-CD28 Fab (SEQ ID NOs: 202, 203) signal” value in assay [2] came out at 1.82. In addition, in assay [3], the “Anti-CD28 Fab signal” value was found to be 0.11. Turning to MCAAGAMYNWPLCL [Phage-1224], in assay [1], the “Anti-CD28 Fab (SEQ ID NOs: 202, 203) signal” value was 0.95.

As to RCAAGVMYDWPVCL [Phage-1043], the “Anti-CD28 Fab (SEQ ID NOs: 202, 203) signal” value in assay [2] was 1.7. Further, in assay [3], the “Anti-CD28 Fab signal” value came to 0.07. As for LCAAGANYPWPACL [Phage-1053], the “Anti-CD28 Fab (SEQ ID NOs: 202, 203) signal” value in assay [2] was found to be 1.66. Further, the “Anti-CD28 Fab signal” value in assay [3] turned out to be 0.07. For the molecule TCAAGAKYVWPLCF [Phage-1235], in assay [1], the “Anti-CD28 Fab (SEQ ID NOs: 202, 203) signal” value amounted to 0.85. Same read-out and setting: for SCSAGAMWLWPECF [Phage-1241] the value was 0.8; for TCSAGAMYNWPECF [Phage-1229], 0.92; for ECGWEPGQHWRVCF [Phage-1238], 0.82.

Consider PCSAGATYAWLYCV [Phage-1011], for which the “Anti-CD28 Fab (SEQ ID NOs: 202, 203) signal” value in assay [2] is 1.81. Moreover, the “Anti-CD28 Fab signal” value in assay [3] came out at 0.06. As for PCAAGAHYVWPVCF [Phage-1221], the “Anti-CD28 Fab (SEQ ID NOs: 202, 203) signal” value in assay [1] came out at 0.97. With TCSAGAYYAWPVCL [Phage-1004], the “Anti-CD28 Fab (SEQ ID NOs: 202, 203) signal” value in assay [2] turned out to be 1.84. Moreover, the “Anti-CD28 Fab signal” value in assay [3] was 0.08.

The term IC50 denotes the concentration that gives 50% inhibition. Low readings indicate greater potency, high ones weaker potency. As a reminder, the EC50 is the concentration needed to bring the measured effect to its halfway point. ADWCPRDLWVHCFA (cysteine pairing not given here; also: biotinylated, site not given here) [Peptide-2] gave a half-maximal inhibitory concentration (IC50) with Ab-1 [4] of 2000 nM. This molecule showed a concentration for a half-maximal effect (EC50) with Ab-1 [5] of 75.9 nM. Moreover, in the assay with Ab-1 [6], the Octet signal came to 0.7 and the t1/2 was 3.1 min. With RCKAGVPYKWPMCL [Phage-1233], in assay [1], the “Anti-CD28 Fab (SEQ ID NOs: 202, 203) signal” value came out at 0.87. Turning to TCSAGAHWTWPLCF [Phage-1044], in assay [2], the “Anti-CD28 Fab (SEQ ID NOs: 202, 203) signal” value came to 1.69. In assay [3], the “Anti-CD28 Fab signal” value came out at 0.06. Consider TCAAGAMWQWPVCL [Phage-1010], for which, in assay [2], the “Anti-CD28 Fab (SEQ ID NOs: 202, 203) signal” value stood at 1.81. In assay [3], the “Anti-CD28 Fab signal” value amounted to 0.06. In the case of SCAAGATYKWPACF [Phage-1240], the “Anti-CD28 Fab (SEQ ID NOs: 202, 203) signal” value in assay [1] was 0.8. Same read-out and setting: for TCSAGAMYSWPLCI [Phage-1230] the value was 0.91. As for LCKPGVPYQWPTCF [Phage-1009], the “Anti-CD28 Fab (SEQ ID NOs: 202, 203) signal” value in assay [2] was determined as 1.82. In addition, in assay [3], the “Anti-CD28 Fab signal” value amounted to 0.05. On to SCAAGATYEWPTCL [Phage-1239], for which the “Anti-CD28 Fab (SEQ ID NOs: 202, 203) signal” value in assay [1] was determined as 0.81. With TCAAGAMWVWPTCL [Phage-1052], in assay [2], the “Anti-CD28 Fab (SEQ ID NOs: 202, 203) signal” value is 1.66. For the same molecule, the “Anti-CD28 Fab signal” value in assay [3] stood at 0.07. As for TCAAGAGWAWPFCF [Phage-1056], the “Anti-CD28 Fab (SEQ ID NOs: 202, 203) signal” value in assay [2] amounted to 1.65. The “Anti-CD28 Fab signal” value in assay [3] is 0.09. With TCSAGAHYPWPMCL [Phage-1227], the “Anti-CD28 Fab (SEQ ID NOs: 202, 203) signal” value in assay [1] worked out at 0.93. Consider WCSAVFSYQWPPCF [Phage-1242], for which the “Anti-CD28 Fab (SEQ ID NOs: 202, 203) signal” value in assay [1] was determined as 0.78. Consider TCSAGATYKWPTCL [Phage-1222], for which the “Anti-CD28 Fab (SEQ ID NOs: 202, 203) signal” value in assay [1] came to 0.97. TCSAGASYPWPVCL [Phage-1048]: in assay [2], the “Anti-CD28 Fab (SEQ ID NOs: 202, 203) signal” value is 1.67. For the same molecule, the “Anti-CD28 Fab signal” value in assay [3] is 0.07. For the molecule SCAAGASYSWPLCF [Phage-1225], in assay [1], the “Anti-CD28 Fab (SEQ ID NOs: 202, 203) signal” value was found to be 0.95.

As to SCAAGLSYPWPDCL [Phage-1055], in assay [2], the “Anti-CD28 Fab (SEQ ID NOs: 202, 203) signal” value amounted to 1.65. The “Anti-CD28 Fab signal” value in assay [3] was 0.07. As for LCSAGAMYPWPLCY [Phage-1051], in assay [2], the “Anti-CD28 Fab (SEQ ID NOs: 202, 203) signal” value was 1.66. In addition, the “Anti-CD28 Fab signal” value in assay [3] was found to be 0.08.

Turning to LCRAGAMWPWPTCL [Phage-1005], in assay [2], the “Anti-CD28 Fab (SEQ ID NOs: 202, 203) signal” value was 1.83. Also, the “Anti-CD28 Fab signal” value in assay [3] is 0.06. For the molecule TCSAGATFHWPQCF [Phage-1006], in assay [2], the “Anti-CD28 Fab (SEQ ID NOs: 202, 203) signal” value amounted to 1.83. The “Anti-CD28 Fab signal” value in assay [3] came out at 0.08. For SCAAGATYTWPMCI [Phage-1054], in assay [2], the “Anti-CD28 Fab (SEQ ID NOs: 202, 203) signal” value was determined as 1.66. The “Anti-CD28 Fab signal” value in assay [3] worked out at 0.07. As to QCAAGASYPWPVCL [Phage-1008], the “Anti-CD28 Fab (SEQ ID NOs: 202, 203) signal” value in assay [2] was 1.82. Further, in assay [3], the “Anti-CD28 Fab signal” value was 0.07.

Take TCSAGATYSWPQCL [Phage-1003]: in assay [2], the “Anti-CD28 Fab (SEQ ID NOs: 202, 203) signal” value turned out to be 1.84. In addition, the “Anti-CD28 Fab signal” value in assay [3] was 0.07. On to LCAAVFAYTWPMCF [Phage-1220], for which the “Anti-CD28 Fab (SEQ ID NOs: 202, 203) signal” value in assay [1] was determined as 0.98.

(Values after patent US20260274955A1 (JANUX THERAPEUTICS, published 2026).)
